Data published in patent US20170131280A1 (GENERAL HOSPITAL, published 2017).

B1: Suppressor of AKT (SAKT), endogenous protein of murine bone marrow (BM) cells (receptor, mouse, UniProt Q8BT18 48-775, looked up)
chain: FPKVERRETAQEYAEKEQSQKMNTDDQENISFAPKYMLQQMSSEAPMVLSEGPSEIPLIKVFSVNKESHLPGAGLLHPTSPGVYSSSEPVVSASEQEPGPSLLERMSSEHSLSKVMLTVAVSSPASLNPDQEGPYNSLSTQPIVAAVTDVTHGSLDYLDNQLFAAKSQEAVSLGNSPSSSINTKEPEIIKADAAMGTTVVPGVDSTGDMEPDRERPSEMAADDGQSTTTKYLVTIPNNFLTTEPTAGSILGDAKVTVSVSTAGPVSSIFNEEWDDTKFESISRGRPPEPGDNAETQMRTKPPHGTYESFEGTEESPSSTAVLKVAPGHLGGEPALGTALVTALGDERSPVLTHQISFTPMSLAEDPEVSTMKLFPSAGGFRASTQGDRTQLSSETAFSTSQYESVPQQEAGNVLKDITQERKMATQAMNTTSPVVTQEHMATIEVPRGSGEPEEGMPSLSPVPAEVADAELSRRGESLATPASTTVVPLSLKLTSSMEDLMDTITGPSEEFIPVLGSPMAPPAMTVEAPTISSALPSEGRTSPSISRPNTAASYGLEQLESEEVEDDEDEEDEEDEEEEEEDEEDEEDEEDKETDSLYKDFDGDTEPPGFTLPGITSQEPDIRSGSMDLLEVATYQVPETIEWEQQNQGLVRSWMEKLKDKAGYMSGMLVPVGVGIAGALFILGALYSIKVMNRRRRNGFKRHKRKQREFNSMQDRVMLLADSSEDEF
notes: Endogenous protein immunoprecipitated from murine BM cell lysates; also called C14ORF37
B2: Suppressor of AKT (SAKT), endogenous protein of 293T cells (receptor, UniProt Q86TY3 28-774, looked up)
chain: FPKIERRREIAHVHAEKGQSDKMNTDDLENSSVTSKQTPQLVVSEDPMMMSAVPSATSLNKAFSINKETQPGQAGLMQTERPGVSTPTESGVPSAEEVFGSSQPERISPESGLAKAMLTIAITATPSLTVDEKEELLTSTNFQPIVEEITETTKGFLKYMDNQSFATESQEGVGLGHSPSSYVNTKEMLTTNPKTEKFEADTDHRTTSFPGAESTAGSEPGSLTPDKEKPSQMTADNTQAAATKQPLETSEYTLSVEPETDSLLGAPEVTVSVSTAVPAASALSDEWDDTKLESVSRIRTPKLGDNEETQVRTEMSQTAQVSHEGMEGGQPWTEAAQVALGLPEGETHTGTALLIAHGNERSPAFTDQSSFTPTSLMEDMKVSIVNLLQSTGDFTESTKENDALFFLETTVSVSVYESEADQLLGNTMKDIITQEMTTAVQEPDATLSMVTQEQVATLELIRDSGKTEEEKEDPSPVSDVPGVTQLSRRWEPLATTISTTVVPLSFEVTPTVEEQMDTVTGPNEEFTPVLGSPVTPPGIMVGEPSISPALPALEASSERRTVVPSITRVNTAASYGLDQLESEEGQEDEDEEDEEDEDEEEEDEEEDEEDKDADSLDEGLDGDTELPGFTLPGITSQEPGLEEGNMDLLEGATYQVPDALEWEQQNQGLVRSWMEKLKDKAGYMSGMLVPVGVGIAGALFILGALYSIKVMNRRRRNGFKRHKRKQREFNSMQDRVMLLADSSEDEF
notes: also called C14ORF37

How the values were obtained:
[1] = target: mTor, endogenous protein of murine BM cells (mouse, UniProt Q9JLN9 1-2549); assay: co-immunoprecipitation from BM cell lysates, western blot (FIG. 1E)
Protocol: (§1) Rictor interaction required the C-terminal portion of SAKT that encompass the cytoplasmic region.
(§2) Protein Analyses. For immunoblotting, cells were lysed in RIPA buffer (Cell Signaling Technology) supplemented with HALT™ protease and phosphatase inhibitor cocktails (Thermo Scientific). Western blot analysis was carried out according to standard methods (8). Equal amounts of total protein from lysates were subjected to SDS-PAGE, transferred to PVDF membrane (Invitrogen), and membranes were probed by overnight incubation with appropriate primary antibodies. Bound antibodies were visualized with HRP-conjugated secondary antibodies and ECL detection reagent (GE Healthcare) and quantification of protein bands (Multigauge V3.0, Fujifilm). For standard immunoprecipitation experiments, proteins were extracted by incubation on ice in IP Lysis Buffer and all protein extracts were pre-cleared with Protein-A/G agarose (Santa Cruz Biotechnology) and incubated with Protein A/G agarose bound with antibodies against FLAG M2 (Sigma), Rictor (#9476, Cell Signaling Technology), and SAKT (Santa Cruz Biotechnology) or control IgG from mouse, and rabbit at 4° C. Immunoprecipitates were washed four times with lysis buffer and boiled for 10 minutes in 1× LDS sample buffer (Invitrogen). The eluted proteins were immunoblotted with the antibodies indicated above. […]

[2] = target: Raptor, endogenous protein of murine BM cells (mouse, UniProt Q8K4Q0 1-1335); assay: as above
Chain of Raptor, endogenous protein of murine BM cells (Q8K4Q0 whole entry): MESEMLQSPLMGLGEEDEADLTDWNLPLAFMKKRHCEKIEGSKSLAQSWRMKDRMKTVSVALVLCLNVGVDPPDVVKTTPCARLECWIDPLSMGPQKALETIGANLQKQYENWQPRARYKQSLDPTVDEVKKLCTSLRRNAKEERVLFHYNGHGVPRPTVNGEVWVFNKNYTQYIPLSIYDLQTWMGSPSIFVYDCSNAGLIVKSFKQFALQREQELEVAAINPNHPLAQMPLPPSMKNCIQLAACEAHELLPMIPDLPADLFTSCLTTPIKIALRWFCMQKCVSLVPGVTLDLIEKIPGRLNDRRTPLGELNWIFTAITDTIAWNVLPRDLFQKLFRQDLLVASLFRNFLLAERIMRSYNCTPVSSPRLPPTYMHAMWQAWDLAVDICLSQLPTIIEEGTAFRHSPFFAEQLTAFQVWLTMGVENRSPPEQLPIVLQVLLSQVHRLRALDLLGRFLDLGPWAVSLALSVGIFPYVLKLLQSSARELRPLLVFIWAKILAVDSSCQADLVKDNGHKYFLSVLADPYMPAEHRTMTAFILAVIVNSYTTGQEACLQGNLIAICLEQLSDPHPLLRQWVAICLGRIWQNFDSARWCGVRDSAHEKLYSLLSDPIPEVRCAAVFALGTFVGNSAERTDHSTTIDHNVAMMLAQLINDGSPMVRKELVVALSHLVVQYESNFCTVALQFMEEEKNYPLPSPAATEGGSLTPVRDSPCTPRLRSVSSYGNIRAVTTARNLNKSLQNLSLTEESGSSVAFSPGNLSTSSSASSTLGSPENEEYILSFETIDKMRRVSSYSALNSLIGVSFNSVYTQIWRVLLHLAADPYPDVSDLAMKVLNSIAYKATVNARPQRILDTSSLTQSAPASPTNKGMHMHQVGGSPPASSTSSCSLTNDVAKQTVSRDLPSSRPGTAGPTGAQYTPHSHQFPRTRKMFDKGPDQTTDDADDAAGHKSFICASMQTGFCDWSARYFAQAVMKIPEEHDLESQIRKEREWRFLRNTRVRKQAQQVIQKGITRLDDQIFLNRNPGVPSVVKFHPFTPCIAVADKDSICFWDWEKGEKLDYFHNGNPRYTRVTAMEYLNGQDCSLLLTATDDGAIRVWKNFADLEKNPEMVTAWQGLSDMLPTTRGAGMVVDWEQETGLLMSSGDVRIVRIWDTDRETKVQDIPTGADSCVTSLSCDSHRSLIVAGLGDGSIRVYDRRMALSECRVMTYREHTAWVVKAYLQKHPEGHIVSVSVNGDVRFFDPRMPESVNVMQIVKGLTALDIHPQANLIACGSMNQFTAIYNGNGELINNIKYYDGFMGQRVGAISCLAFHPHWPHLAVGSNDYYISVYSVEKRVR
Protocol: as §1, §2

[3] = target: Raptor, endogenous protein of 293T cells (UniProt Q8N122 1-1335); assay: co-immunoprecipitation from 293T cell lysates, western blot (FIG. 1E)
Chain of Raptor, endogenous protein of 293T cells (Q8N122 whole entry): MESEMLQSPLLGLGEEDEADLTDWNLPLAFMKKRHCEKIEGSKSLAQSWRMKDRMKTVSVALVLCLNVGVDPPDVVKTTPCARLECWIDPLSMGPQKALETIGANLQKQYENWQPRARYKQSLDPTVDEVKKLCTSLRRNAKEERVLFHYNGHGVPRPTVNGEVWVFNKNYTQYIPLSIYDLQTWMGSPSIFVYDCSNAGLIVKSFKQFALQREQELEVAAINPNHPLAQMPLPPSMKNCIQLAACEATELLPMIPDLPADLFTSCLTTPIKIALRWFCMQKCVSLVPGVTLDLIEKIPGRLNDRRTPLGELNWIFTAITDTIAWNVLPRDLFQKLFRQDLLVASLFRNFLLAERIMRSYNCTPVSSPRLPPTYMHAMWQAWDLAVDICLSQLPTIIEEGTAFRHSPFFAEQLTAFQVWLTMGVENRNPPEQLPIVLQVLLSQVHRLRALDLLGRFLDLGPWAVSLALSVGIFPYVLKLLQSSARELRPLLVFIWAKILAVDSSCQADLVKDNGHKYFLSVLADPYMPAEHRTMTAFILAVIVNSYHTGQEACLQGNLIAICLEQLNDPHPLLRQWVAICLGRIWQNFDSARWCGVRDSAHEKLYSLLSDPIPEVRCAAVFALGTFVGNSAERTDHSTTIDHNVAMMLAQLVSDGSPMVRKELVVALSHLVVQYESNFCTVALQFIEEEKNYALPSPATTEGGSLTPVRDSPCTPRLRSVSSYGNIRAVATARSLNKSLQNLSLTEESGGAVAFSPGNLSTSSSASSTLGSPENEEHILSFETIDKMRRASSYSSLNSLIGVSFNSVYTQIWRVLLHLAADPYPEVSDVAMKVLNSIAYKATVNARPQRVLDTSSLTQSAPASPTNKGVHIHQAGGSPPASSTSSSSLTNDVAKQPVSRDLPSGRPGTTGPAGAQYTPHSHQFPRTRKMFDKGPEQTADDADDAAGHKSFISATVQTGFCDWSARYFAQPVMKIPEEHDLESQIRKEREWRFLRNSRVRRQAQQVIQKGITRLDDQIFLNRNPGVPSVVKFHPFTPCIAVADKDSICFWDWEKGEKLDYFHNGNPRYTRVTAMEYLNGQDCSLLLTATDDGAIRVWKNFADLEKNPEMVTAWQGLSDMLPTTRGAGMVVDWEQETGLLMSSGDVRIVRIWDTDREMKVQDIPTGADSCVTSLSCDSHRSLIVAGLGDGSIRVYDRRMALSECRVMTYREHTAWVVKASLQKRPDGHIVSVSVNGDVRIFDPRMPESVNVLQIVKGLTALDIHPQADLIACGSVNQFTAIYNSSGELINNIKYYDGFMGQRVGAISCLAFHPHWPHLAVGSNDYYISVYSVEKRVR
Protocol: as §1, §2

[4] = target: mTor, endogenous protein of 293T cells (human, UniProt P42345 1-2549); assay: as above
Protocol: as §1, §2

| Binder | binding result [1] | binding result [2] | binding result [3] | binding result [4] |
| --- | --- | --- | --- | --- |
| B1 | no binding | no binding | – | – |
| B2 | – | – | no binding | no binding |
